Source: PMC9429925
Values belong to the substance of their own block, whether it stands above or below them.

What was measured:
DcuR = DcuR (UniProt P0AD01); test: size exclusion chromatography with SDS-PAGE of fractions; settings: reference: PASC-Kin without ATP, mixed with DcuR; sites H349
[1] = biological target: FixJ (Rhizobium meliloti) (UniProt P10958); settings: cited from earlier work
OmpR (Escherichia coli) = OmpR (Escherichia coli) (UniProt P0AA16); settings: cited from earlier work
Chain of OmpR (Escherichia coli) (P0AA16 whole entry): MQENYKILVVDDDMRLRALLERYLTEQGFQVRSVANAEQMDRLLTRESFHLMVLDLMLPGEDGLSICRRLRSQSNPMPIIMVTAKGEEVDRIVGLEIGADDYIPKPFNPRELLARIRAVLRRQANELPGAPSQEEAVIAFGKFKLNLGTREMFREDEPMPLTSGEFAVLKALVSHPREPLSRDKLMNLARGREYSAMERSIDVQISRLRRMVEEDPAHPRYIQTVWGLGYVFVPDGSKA

Chain of EnvZ cytoplasmic portion (P0AEJ4 180-450): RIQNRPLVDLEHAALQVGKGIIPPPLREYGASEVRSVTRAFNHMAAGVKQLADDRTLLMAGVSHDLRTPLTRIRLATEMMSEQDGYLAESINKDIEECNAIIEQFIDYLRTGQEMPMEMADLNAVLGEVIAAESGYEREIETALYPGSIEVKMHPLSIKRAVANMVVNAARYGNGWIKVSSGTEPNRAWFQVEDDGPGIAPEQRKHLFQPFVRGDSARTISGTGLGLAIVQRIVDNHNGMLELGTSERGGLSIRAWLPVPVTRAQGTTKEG
Chain of FixL heme-binding and kinase domains (P10955 127-505): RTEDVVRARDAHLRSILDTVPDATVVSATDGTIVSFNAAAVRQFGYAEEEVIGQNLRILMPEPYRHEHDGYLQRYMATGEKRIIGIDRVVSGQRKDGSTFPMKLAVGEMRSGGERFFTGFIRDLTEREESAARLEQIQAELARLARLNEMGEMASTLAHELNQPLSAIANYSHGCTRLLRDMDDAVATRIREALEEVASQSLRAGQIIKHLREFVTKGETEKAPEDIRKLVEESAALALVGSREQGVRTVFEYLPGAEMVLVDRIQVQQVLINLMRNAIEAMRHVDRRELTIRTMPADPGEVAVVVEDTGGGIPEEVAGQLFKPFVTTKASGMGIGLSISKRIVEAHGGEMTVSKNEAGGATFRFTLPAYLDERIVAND
Chain of FixJ (Rhizobium meliloti) (P10958 whole entry): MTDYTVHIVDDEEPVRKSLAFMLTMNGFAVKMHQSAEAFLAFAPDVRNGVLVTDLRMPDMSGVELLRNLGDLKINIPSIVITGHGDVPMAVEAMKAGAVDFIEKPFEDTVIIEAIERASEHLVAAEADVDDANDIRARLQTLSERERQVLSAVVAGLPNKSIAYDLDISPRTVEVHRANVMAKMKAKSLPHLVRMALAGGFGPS

other: mol DcuR per mol PASC-Kin in complex peak (DcuR): stronger; reference approximately 0.11
Substance: DcuS (cytoplasmic part: PASC-Kin) PASC-Kin, 212-539 (from UniProt P0AEC8) PASC-Kin pre-incubated with ATP, mixed with DcuR

Substance: FixL heme-binding and kinase domains (from UniProt P10955)
Kd [1]: 4 µM

Substance: EnvZ cytoplasmic portion (from UniProt P0AEJ4)
Kd (OmpR (Escherichia coli)): 0.425 µM
